In patent US20150119341A1 (PALATIN TECHNOLOGIES, published 2015):
Like-named read-outs stand apart in the source and are kept apart here. [ ]: non-standard residue; d: D form. Nle = CCCC[C@H](N)C(=O)O; Orn = NCCC[C@H](N)C(=O)O; Dab = NCC[C@H](N)C(=O)O; Sar = CNCC(=O)O

How the values were obtained:
[1] = target: T1, human melanocortin-1 receptor (hMCR-1) expressed by the human melanoma cell line HBL (human, UniProt Q01726 1-317); assay: cell-based or functional assay
[2] = target: T1, human melanocortin-1 receptor (hMCR-1) …; assay: cell-based or functional assay; remark: listed apart in the source
[3] = target: T1, human melanocortin-1 receptor (hMCR-1) …; assay: cell-based or functional assay; remark: listed apart in the source
[4] = target: T2, recombinant human melanocortin-1 receptor (hMCR-1a) in membrane homogenates of HEK-293 cells (human, UniProt Q01726 1-317); assay: competitive inhibition of [I125]-NDP-alpha-MSH, hMCR-1 HEK-293 membranes
T2 construct: whole, on cells; Used as membrane homogenates, not intact cells; also called hMCR-la; MC-1
Protocol: (§1) A competitive inhibition binding assay was performed using membrane homogenates prepared from HEK-293 cells that express recombinant hMCR-la or hMCR-4 (in each instance where the h prefix refers to human), or alternatively membrane homogenates from B16-F10 mouse melanoma cells containing endogenous murine MCR-1. In the examples that follow, all MCR-1 and MCR-4 values are for human recombinant receptors, unless otherwise noted. Assays were performed in 96 well polypropylene round-bottom plates (VWR catalog number 12777-030).
(§2) Membrane homogenates were incubated with 0.1 nM [I¹²⁵]-NDP-α-MSH (Perkin Elmer) and increasing concentrations of test peptides of the present invention in buffer containing 25 mM HEPES buffer (pH 7.5) with 100 mM NaCl, 2 mM CaCl₂, 2 mM MgCl₂, 0.3 mM 1,10-phenanthroline, and 0.2% bovine serum albumin. After incubation for 90 minutes at 37° C., the assay mixture was filtered onto GF/B Unifilter plates (Perkin-Elmer catalog number 6005177) and washed with 3 mL of ice-cold buffer per well. Filters were air dried and 35 μL of scintillation cocktail added to each well. Plates were counted in a Microbeta counter for bound radioactivity. […] Maximal specific binding (100%) was defined as the difference in radioactivity (cpm) bound to cell membranes in the absence and presence of 1 μM NDP-α-MSH. Each assay was conducted in duplicate and the actual mean values are described, with results less than 0% reported as 0%. Ki values for peptides of the present invention were determined using Graph-Pad PRISM® curve-fitting software.

[5] = target: T3, recombinant human melanocortin-4 receptor (hMCR-4) in membrane homogenates of HEK-293 cells (human, UniProt P32245 1-332); assay: competitive inhibition of [I125]-NDP-alpha-MSH, hMCR-4 HEK-293 membranes
T3 construct: whole, on cells; Used as membrane homogenates, not intact cells; also called MC-4
Protocol: as §1, §2

[6] = target: T1, human melanocortin-1 receptor (hMCR-1) …; assay: cell-based or functional assay; remark: listed apart in the source
[7] = target: T1, human melanocortin-1 receptor (hMCR-1) …; assay: cell-based or functional assay; remark: listed apart in the source
[8] = target: T1, human melanocortin-1 receptor (hMCR-1) …; assay: cell-based or functional assay; remark: listed apart in the source
[9] = target: T1, human melanocortin-1 receptor (hMCR-1) …; assay: cell-based or functional assay; remark: listed apart in the source
[10] = target: T1, human melanocortin-1 receptor (hMCR-1) …; assay: cell-based or functional assay; remark: listed apart in the source
[11] = target: T1, human melanocortin-1 receptor (hMCR-1) …; assay: cell-based or functional assay; remark: listed apart in the source
[12] = target: T1, human melanocortin-1 receptor (hMCR-1) …; assay: cell-based or functional assay; remark: listed apart in the source
[13] = target: T1, human melanocortin-1 receptor (hMCR-1) …; assay: cell-based or functional assay; remark: listed apart in the source
[14] = target: T1, human melanocortin-1 receptor (hMCR-1) …; assay: cell-based or functional assay; remark: listed apart in the source
[15] = target: T1, human melanocortin-1 receptor (hMCR-1) …; assay: cell-based or functional assay; remark: listed apart in the source

T2 sequence (Q01726 whole entry): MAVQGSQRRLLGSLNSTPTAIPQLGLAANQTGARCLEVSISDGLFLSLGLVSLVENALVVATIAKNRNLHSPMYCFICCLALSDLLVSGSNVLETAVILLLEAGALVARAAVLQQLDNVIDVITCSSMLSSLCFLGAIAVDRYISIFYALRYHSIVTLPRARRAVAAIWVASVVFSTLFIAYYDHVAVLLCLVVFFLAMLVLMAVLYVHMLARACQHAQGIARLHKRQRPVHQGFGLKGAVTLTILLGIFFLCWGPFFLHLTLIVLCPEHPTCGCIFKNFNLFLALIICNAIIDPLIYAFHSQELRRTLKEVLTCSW
T1 sequence (Q01726 whole entry): as above
T3 sequence (P32245 whole entry): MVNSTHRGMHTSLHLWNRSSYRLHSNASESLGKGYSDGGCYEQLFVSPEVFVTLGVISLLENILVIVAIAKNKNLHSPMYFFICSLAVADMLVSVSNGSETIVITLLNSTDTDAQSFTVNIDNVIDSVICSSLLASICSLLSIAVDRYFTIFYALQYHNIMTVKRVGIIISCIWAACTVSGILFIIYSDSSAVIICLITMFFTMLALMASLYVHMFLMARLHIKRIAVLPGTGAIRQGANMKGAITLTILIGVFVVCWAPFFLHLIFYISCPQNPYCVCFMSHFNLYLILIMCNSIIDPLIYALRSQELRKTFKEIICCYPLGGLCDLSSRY

Ki [4] | Ki [5] | Binder | further results
35 nM | 3420 nM | Ac-[Nle]H[dF]RAW-NH2 (SMILES CCCC[C@H](NC(C)=O)C(=O)N[C@@H](Cc1c[nH]cn1)C(=O)N[C@H](Cc1ccccc1)C(=O)N[C@@H](CCCNC(=N)N)C(=O)N[C@@H](C)C(=O)N[C@@H](Cc1c[nH]c2ccccc12)C(N)=O, synthetic linear peptide) [Ac-Nle-His-D-Phe-Arg-Ala-Trp-NH2] | MC-1 EC50 (average; cAMP HBL) [3]: 1 nM
6 nM | 7420 nM | Ac-[Nle]AH[dF]RAW-OH (SMILES CCCC[C@H](NC(C)=O)C(=O)N[C@@H](C)C(=O)N[C@@H](Cc1c[nH]cn1)C(=O)N[C@H](Cc1ccccc1)C(=O)N[C@@H](CCCNC(=N)N)C(=O)N[C@@H](C)C(=O)N[C@@H](Cc1c[nH]c2ccccc12)C(=O)O, synthetic linear peptide) [Ac-Nle-Ala-His-D-Phe-Arg-Ala-Trp-OH] | MC-1 EC50 (average; cAMP HBL) [8]: 0.4 nM
20 nM | 1620 nM | Ac-[Nle]AF[dF]RAW-NH2 (SMILES CCCC[C@H](NC(C)=O)C(=O)N[C@@H](C)C(=O)N[C@@H](Cc1ccccc1)C(=O)N[C@H](Cc1ccccc1)C(=O)N[C@@H](CCCNC(=N)N)C(=O)N[C@@H](C)C(=O)N[C@@H](Cc1c[nH]c2ccccc12)C(N)=O, synthetic linear peptide) [Ac-Nle-Ala-Phe-D-Phe-Arg-Ala-Trp-NH2] | MC-1 EC50 (average; cAMP HBL) [10]: 6 nM
0.45 nM | 1180 nM | Ac-[Nle]AR[dF]RAW-NH2 (SMILES CCCC[C@H](NC(C)=O)C(=O)N[C@@H](C)C(=O)N[C@@H](CCCNC(=N)N)C(=O)N[C@H](Cc1ccccc1)C(=O)N[C@@H](CCCNC(=N)N)C(=O)N[C@@H](C)C(=O)N[C@@H](Cc1c[nH]c2ccccc12)C(N)=O, synthetic linear peptide) [Ac-Nle-Ala-Arg-D-Phe-Arg-Ala-Trp-NH2] | MC-1 EC50 (average; cAMP HBL) [11]: 0.04 nM
4 nM | 10000 nM | Ac-[Nle]AK[dF]RAW-NH2 (SMILES CCCC[C@H](NC(C)=O)C(=O)N[C@@H](C)C(=O)N[C@@H](CCCCN)C(=O)N[C@H](Cc1ccccc1)C(=O)N[C@@H](CCCNC(=N)N)C(=O)N[C@@H](C)C(=O)N[C@@H](Cc1c[nH]c2ccccc12)C(N)=O, synthetic linear peptide) [Ac-Nle-Ala-Lys-D-Phe-Arg-Ala-Trp-NH2] | MC-1 EC50 (average; cAMP HBL) [13]: 0.1 nM
185 nM | 20 nM | Ac-[Nle]AH[dF]RPW-NH2 (SMILES CCCC[C@H](NC(C)=O)C(=O)N[C@@H](C)C(=O)N[C@@H](Cc1c[nH]cn1)C(=O)N[C@H](Cc1ccccc1)C(=O)N[C@@H](CCCNC(=N)N)C(=O)N1CCC[C@H]1C(=O)N[C@@H](Cc1c[nH]c2ccccc12)C(N)=O, synthetic linear peptide) [Ac-Nle-Ala-His-D-Phe-Arg-Pro-Trp-NH2] | MC-1 EC50 (average; cAMP HBL) [14]: 9 nM

Further lines, the binder ahead of its results:

Binder | Ki [4] | Ki [5] | further results
Ac-[Nle]AH[dF]R[Sar]W-NH2 (SMILES CCCC[C@H](NC(C)=O)C(=O)N[C@@H](C)C(=O)N[C@@H](Cc1c[nH]cn1)C(=O)N[C@H](Cc1ccccc1)C(=O)N[C@@H](CCCNC(=N)N)C(=O)N(C)CC(=O)N[C@@H](Cc1c[nH]c2ccccc12)C(N)=O) [Ac-Nle-Ala-His-D-Phe-Arg-Sar-Trp-NH2] | – | – | MC-1 EC50 (average; cAMP HBL) [1]: 0.17 nM
Ac-[Nle]A[Dab][dF]RAW-NH2 (SMILES CCCC[C@H](NC(C)=O)C(=O)N[C@@H](C)C(=O)N[C@@H](CCN)C(=O)N[C@H](Cc1ccccc1)C(=O)N[C@@H](CCCNC(=N)N)C(=O)N[C@@H](C)C(=O)N[C@@H](Cc1c[nH]c2ccccc12)C(N)=O) [Ac-Nle-Ala-Dab-D-Phe-Arg-Ala-Trp-NH2] | – | – | MC-1 EC50 (average; cAMP HBL) [2]: 0.165 nM
Ac-[Nle]A[Orn][dF]RAW-NH2 (SMILES CCCC[C@H](NC(C)=O)C(=O)N[C@@H](C)C(=O)N[C@@H](CCCN)C(=O)N[C@H](Cc1ccccc1)C(=O)N[C@@H](CCCNC(=N)N)C(=O)N[C@@H](C)C(=O)N[C@@H](Cc1c[nH]c2ccccc12)C(N)=O) [Ac-Nle-Ala-Orn-D-Phe-Arg-Ala-Trp-NH2] | – | – | MC-1 EC50 (average; cAMP HBL) [6]: 0.045 nM
Ac-[Nle][dF]RAW-NH2 (SMILES CCCC[C@H](NC(C)=O)C(=O)N[C@H](Cc1ccccc1)C(=O)N[C@@H](CCCNC(=N)N)C(=O)N[C@@H](C)C(=O)N[C@@H](Cc1c[nH]c2ccccc12)C(N)=O) [Ac-Nle-D-Phe-Arg-Ala-Trp-NH2] | – | – | MC-1 EC50 (average; cAMP HBL) [7]: 402 nM
Ac-[Nle]AA[dF]RAW-NH2 (SMILES CCCC[C@H](NC(C)=O)C(=O)N[C@@H](C)C(=O)N[C@@H](C)C(=O)N[C@H](Cc1ccccc1)C(=O)N[C@@H](CCCNC(=N)N)C(=O)N[C@@H](C)C(=O)N[C@@H](Cc1c[nH]c2ccccc12)C(N)=O, synthetic linear peptide) [Ac-Nle-Ala-Ala-D-Phe-Arg-Ala-Trp-NH2] | 195 nM | 10000 nM | MC-1 EC50 (average; cAMP HBL) [9]: 8 nM
Ac-[Nle]AH[dF]AAW-NH2 (SMILES CCCC[C@H](NC(C)=O)C(=O)N[C@@H](C)C(=O)N[C@@H](Cc1c[nH]cn1)C(=O)N[C@H](Cc1ccccc1)C(=O)N[C@@H](C)C(=O)N[C@@H](C)C(=O)N[C@@H](Cc1c[nH]c2ccccc12)C(N)=O, synthetic linear peptide) [Ac-Nle-Ala-His-D-Phe-Ala-Ala-Trp-NH2] | 43 nM | 10000 nM | MC-1 EC50 (average; cAMP HBL) [12]: 4 nM
Ac-[Nle]AH[dF]RGW-NH2 (SMILES CCCC[C@H](NC(C)=O)C(=O)N[C@@H](C)C(=O)N[C@@H](Cc1c[nH]cn1)C(=O)N[C@H](Cc1ccccc1)C(=O)N[C@@H](CCCNC(=N)N)C(=O)NCC(=O)N[C@@H](Cc1c[nH]c2ccccc12)C(N)=O, synthetic linear peptide) [Ac-Nle-Ala-His-D-Phe-Arg-Gly-Trp-NH2] | 0.8 nM | 885 nM | MC-1 EC50 (average; cAMP HBL) [15]: 0.038 nM
